Measurements as given in paper doi:10.1101/2021.12.21.473719.

Biological target: POPDC1 tagged with Venus (YFP acceptor for FLIM-FRET with TREK-1) (mouse) (UniProt Q9ES83)
Experiment: FRET or BRET

Chain of Cerulean-TREK-1 (natural protein) (O95069 whole entry): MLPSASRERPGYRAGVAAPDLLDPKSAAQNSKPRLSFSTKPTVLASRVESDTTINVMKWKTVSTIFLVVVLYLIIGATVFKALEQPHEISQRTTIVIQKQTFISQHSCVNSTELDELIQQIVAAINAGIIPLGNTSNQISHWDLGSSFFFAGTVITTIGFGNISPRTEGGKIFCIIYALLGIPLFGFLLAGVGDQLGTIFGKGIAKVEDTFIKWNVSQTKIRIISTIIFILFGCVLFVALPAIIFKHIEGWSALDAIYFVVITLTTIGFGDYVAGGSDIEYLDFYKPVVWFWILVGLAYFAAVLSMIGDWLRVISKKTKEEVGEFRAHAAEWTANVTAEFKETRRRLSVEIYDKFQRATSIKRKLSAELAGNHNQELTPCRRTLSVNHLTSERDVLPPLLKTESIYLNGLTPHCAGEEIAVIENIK
Chain of POPDC1 tagged with Venus (YFP acceptor for FLIM-FRET with TREK-1) (mouse) (Q9ES83 whole entry): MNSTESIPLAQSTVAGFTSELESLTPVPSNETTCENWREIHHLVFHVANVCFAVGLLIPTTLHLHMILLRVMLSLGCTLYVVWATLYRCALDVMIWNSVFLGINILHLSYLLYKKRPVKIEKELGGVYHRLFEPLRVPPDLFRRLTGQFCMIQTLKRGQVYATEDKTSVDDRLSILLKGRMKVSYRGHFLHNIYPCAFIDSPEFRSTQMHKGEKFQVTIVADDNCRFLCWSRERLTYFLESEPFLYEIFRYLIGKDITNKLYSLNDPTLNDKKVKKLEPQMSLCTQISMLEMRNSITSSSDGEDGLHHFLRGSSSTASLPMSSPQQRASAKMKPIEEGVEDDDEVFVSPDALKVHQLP

- FRET efficiency: 18%
Substance: Cerulean-TREK-1 (natural protein)
